Measured values: the supplement of paper PMC10567573

B1: PTPRD (parent)
chain: PVVSMDLDPQPITDEEEGLIWVVG

Variants of: B1
Test: protein stability index of a GFP-peptide fusion (GPS, HEK-293T) (PSI 1-6); higher = more stable
Details: c terminus: a fixed tail appended
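Also: lentivirally expressed fusions sorted by FACS into six bins by GFP to DsRed ratio, PSI derived from sequencing read proportions per bin multiplied by bin number.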

Protein stability index of substitutions, site by site:
G24: D 4.45; F 1.34; Y 3.09; I 1.54; L 1.51; Q 3.55; E 3.77; N 4.15; T 3.21; M 2.87
G18: E 4.22; M 2; S 3.98; K 3.72; Y 2.27; D 4.59; Q 3.37; P 3.19
D6: H 3.24; K 2.99; Q 3.5; F 2.36; V 2.7; I 2.56; S 3.4; A 4.22; T 3.25; P 3.48
E16: Y 2.79; F 1.07; W 2.27; V 1.5; P 2.79; H 3.2
Q10: Y 2.92; S 2.77; D 4.27; I 4.09; A 3.56; C 3.08
S4: C 3.56; Q 4.02; V 2.42; W 1.83; L 2.89; D 3.92; F 2.65; H 3.31
L7: Y 4.27; S 4.33; N 4.74; E 4.89; G 4.87; V 4.01
D14: E 3.78; C 2.9; F 2.14; A 2.58
P11: M 4.27; I 2.93; A 4.67; K 3.68; Q 4.39; Y 2.67
D8: T 3.61; P 3.56; L 3.31; M 3.29; E 3.92; A 3.73; Y 2.74; H 2.1
P1: T 2.22; E 3.2; R 2.62; F 1.19; V 1.86; D 4.28; G 3.77; C 3.12; N 3.58; H 3.02
I20: V 4.87; G 4.92; S 4.64; D 4.8; E 5.35
L19: T 4.91; V 3.56; F 3.65; W 3.37; S 4.21; Q 3.66
P9: I 3.23; N 4.12; F 1.93; T 4.18; C 3.67; D 4.52; W 2.96; R 3.58; V 3.19; Q 4.05
E17: C 2.25; S 2.88; I 1.8
V22: D 5.28; R 3.89; W 3.79; L 3.94; N 4.37; H 4.85; Y 5.12; K 4.57; Q 4.63
V23: S 5.01; Y 4.4; H 4.93; N 4.45; C 3.9; M 4.55; A 4.67; R 5.03; D 5.36
T13: C 3.84; I 2.71; Y 2.9
M5: V 3.92; T 4.01; G 5.16; D 4.71; N 4.7; Q 4.62
E15: K 3.16; T 2.33; C 3.25; D 2.31; W 1.61
I12: M 3.75; L 3.95; E 4.94; F 2.78; C 3.66; K 4.84; V 4.28; H 4.07
W21: L 3.33; A 6; S 5.43; H 5.47; D 5.06; C 4.69
V2: N 3.84; D 3.95; C 4.26; Y 3.56; I 3.05; G 4.23; F 3.16
V3: Q 3.87; S 3.18; D 3.91; F 3.86; A 3.17; I 3.49; L 3.74; N 3.92
